How the values were obtained:
[1] = molecular target: Y1R-eYFP (wild-type Y1R) (human) (UniProt P25929)
[2] = molecular target: Y1R-eYFP (wild-type Y1R) (human) (UniProt P25929); remark: listed apart in the source

Chain of Y1R-eYFP (wild-type Y1R) (human) (P25929 whole entry): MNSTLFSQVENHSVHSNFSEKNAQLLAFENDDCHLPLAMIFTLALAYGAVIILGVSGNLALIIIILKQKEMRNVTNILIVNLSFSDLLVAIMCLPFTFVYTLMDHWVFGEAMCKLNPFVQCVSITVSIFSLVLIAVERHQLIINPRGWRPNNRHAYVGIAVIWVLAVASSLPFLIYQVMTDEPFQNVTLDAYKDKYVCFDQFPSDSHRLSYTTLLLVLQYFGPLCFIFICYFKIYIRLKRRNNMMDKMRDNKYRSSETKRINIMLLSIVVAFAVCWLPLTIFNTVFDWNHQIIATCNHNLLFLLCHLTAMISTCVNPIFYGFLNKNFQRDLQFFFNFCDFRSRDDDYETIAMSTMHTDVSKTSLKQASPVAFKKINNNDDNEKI

ARYYSALRHYINLITRQRY [NPY(18–36)]
signalling assay (Ca2+), decrease in potency compared to full-length NPY [1]: 300 fold

APLEPVYPGDNATPEQMAQYAADLRRYINMLTRPRY [pancreatic polypeptide (PP)]
signalling assay, increase of EC50 compared to NPY [2]: 64 fold

From paper PMC8844075, “Structural basis of neuropeptide Y signaling through Y1 receptor” (Nature Communications, 2022)
